# B1: Metallo‐β‐lactamase L1 from Stenotrophomonas maltophilia K279a (enzyme)
# chain: SNASAAEAPLPQLRAYTVDASWLQPMAPLQVADHTWQIGTEDLTALLVQTAEGAVLLDGGMPQMAGHLLDNMKLRGVAPQDLRLILLSHAHADHAGPVAELKRRTGAHVAANAETAVLLARGGSNDLHFGDGITYPPASADRIIMDGEVVTVGGIAFTAHFMPGHTPGSTAWTWTDTRDGKPVRIAYADSLSAPGYQLKGNPRYPRLIEDYKRSFATVRALPCDLLLTPHPGASNWNYAVGSKASAEALTCNAYADAAEKKFDAQLARETAGTR
# notes: N-terminal Ser‐Asn‐Ala cloning artifact left after TEV cleavage (numbered residues 17–19); Metallo‐β‐lactamase L1 (subclass B3), S. maltophilia K279a, residues 20-290; 88% identical to the L1 of the other strain in earlier structures; Two Zn ions per chain in the native form; Cloned in pMCSG53; also called L1 MBL; L1‐Native; not shown: His‐tag, N-terminal, cleaved
# Molecular target: the molecule itself
# Experiment: crystal structure; L1‐Native in space group P2_(1) with the tetramer in the asymmetric unit; all other L1 structures in P6_(4)22 with one chain in the asymmetric unit and the same tetramer formed by crystallographic twofold symmetries
protein,measurement,value
B1,stoichiometry N,4
